Patent publication US8501696 (dated 2013)

Target: Hyper-IL-6 (designer cytokine consisting of covalently linked IL-6 and sIL-6R) (human, UniProt P08887 20-323; P05231 30-212)
Experiment: SPR

Hyper-IL-6 (designer cytokine consisting of covalently linked IL-6 and sIL-6R), sequence (P08887 20-323, chain 1 of 2): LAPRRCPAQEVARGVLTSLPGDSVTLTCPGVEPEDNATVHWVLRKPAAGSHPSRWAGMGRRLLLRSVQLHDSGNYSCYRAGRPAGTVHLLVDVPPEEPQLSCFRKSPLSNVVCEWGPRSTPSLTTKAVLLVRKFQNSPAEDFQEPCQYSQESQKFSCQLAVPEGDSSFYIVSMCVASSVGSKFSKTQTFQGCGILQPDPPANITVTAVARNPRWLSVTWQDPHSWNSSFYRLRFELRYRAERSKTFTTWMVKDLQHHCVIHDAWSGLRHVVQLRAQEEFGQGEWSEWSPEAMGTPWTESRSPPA
Hyper-IL-6 (designer cytokine consisting of covalently linked IL-6 and sIL-6R), sequence (P05231 30-212, chain 2 of 2): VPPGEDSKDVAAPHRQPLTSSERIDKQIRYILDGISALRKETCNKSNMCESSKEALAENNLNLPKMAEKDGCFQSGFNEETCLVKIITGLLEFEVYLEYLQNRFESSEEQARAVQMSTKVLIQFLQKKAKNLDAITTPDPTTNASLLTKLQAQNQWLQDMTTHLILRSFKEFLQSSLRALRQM

B1: wild type sgp130Fc (Fc fusion)
chain: ELLDPCGYISPESPVVQLHSNFTAVCVLKEKCMDYFHVNANYIVWKTNHFTIPKEQYTIINRTASSVTFTDIASLNIQLTCNILTFGQLEQNVYGITIISGLPPEKPKNLSCIVNEGKKMRCEWDGGRETHLETNFTLKSEWATHKFADCKAKRDTPTSCTVDYSTVYFVNIEVWVEAENALGKVTSDHINFDPVYKVKPNPPHNLSVINSEELSSILKLTWTNPSIKSVIILKYNIQYRTKDASTWSQIPPEDTASTRSSFTVQDLKPFTEYVFRIRCMKEDGKGYWSDWSEEASGITYEDRPSKAPSFWYKIDPSHTQGYRTVQLVWKTLPPFEANGKILDYEVTLTRWKSHLQNYTVNATKLTVNLTNDRYLATLTVRNLVGKSDAAVLTIPACDFQATHPVMDLKAFPKDNMLWVEWTTPRESVKKYILEWCVLSDKAPCITDWQQEDGTVHRTYLRGNLAESKCYLITVTPVYADGPGSPESIKAYLKQAPPSKGPTVRTKKVGKNEAVLEWDQLPVDVQNGFIRNYTIFYRTIIGNETAVNVDSSHTEYTLSSLTSDTLYMVRMAAYTDEGGKDGPEFTFTTPKFAQGEIE
B1 showed a Kd of 0.499 nM.
